PMC6695498

How the values were obtained:
[1] = target: Arkadia (RING finger protein 111, RNF111), wild type, expressed in S. cerevisiae (human) (UniProt Q6ZNA4)
[2] = target: FLAG-SUMO2-GFP-COMP-HA; assay: native gel or EMSA; native PAGE of the GFP-COMP substrates expressed in S. cerevisiae
[3] = target: SUMO1-GFP-COMP-HA; assay: as above
[4] = target: SUMO-binding domain of Arkadia (residues 285–416) with mutations in the SOB motif (SOB*) (murine) (UniProt Q99ML9); assay: ITC
Sequence of SUMO-binding domain of Arkadia (residues 285–416) with mutations in the SOB motif (SOB*) (murine) (Q99ML9 285-416, change not shown): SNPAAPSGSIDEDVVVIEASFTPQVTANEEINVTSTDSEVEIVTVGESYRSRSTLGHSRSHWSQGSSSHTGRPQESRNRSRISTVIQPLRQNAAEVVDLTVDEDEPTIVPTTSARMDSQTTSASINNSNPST

Sequence of Arkadia (RING finger protein 111, RNF111), wild type, expressed in S. cerevisiae (human) (Q6ZNA4 whole entry): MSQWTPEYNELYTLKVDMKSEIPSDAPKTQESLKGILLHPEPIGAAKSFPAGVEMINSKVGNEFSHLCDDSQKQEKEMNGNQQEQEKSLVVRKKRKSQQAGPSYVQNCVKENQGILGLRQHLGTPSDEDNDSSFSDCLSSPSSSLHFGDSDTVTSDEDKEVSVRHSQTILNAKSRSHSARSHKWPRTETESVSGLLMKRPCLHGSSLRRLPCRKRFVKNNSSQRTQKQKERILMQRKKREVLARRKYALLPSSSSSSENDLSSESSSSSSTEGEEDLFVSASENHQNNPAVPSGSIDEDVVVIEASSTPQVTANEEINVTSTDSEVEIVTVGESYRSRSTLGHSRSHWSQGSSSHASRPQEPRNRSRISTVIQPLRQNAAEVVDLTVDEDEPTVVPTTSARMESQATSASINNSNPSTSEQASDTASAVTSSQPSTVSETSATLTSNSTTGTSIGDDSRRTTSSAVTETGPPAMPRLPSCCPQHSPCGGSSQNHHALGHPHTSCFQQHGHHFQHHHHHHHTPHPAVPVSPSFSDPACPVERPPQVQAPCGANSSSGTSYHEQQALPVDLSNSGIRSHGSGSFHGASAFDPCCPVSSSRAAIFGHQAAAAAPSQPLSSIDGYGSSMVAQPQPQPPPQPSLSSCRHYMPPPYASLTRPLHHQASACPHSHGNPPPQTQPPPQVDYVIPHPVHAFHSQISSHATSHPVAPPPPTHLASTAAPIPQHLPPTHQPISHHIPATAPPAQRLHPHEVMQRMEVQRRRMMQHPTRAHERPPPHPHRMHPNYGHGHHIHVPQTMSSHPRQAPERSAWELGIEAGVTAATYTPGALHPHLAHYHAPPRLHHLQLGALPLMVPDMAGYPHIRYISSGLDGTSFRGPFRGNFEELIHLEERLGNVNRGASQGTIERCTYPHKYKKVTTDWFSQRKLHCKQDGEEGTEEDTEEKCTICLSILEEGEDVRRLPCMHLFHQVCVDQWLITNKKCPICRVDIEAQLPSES

Row | Substance | steady-state level of the reporter in S. cerevisiae co-expressing Arkadia, against the vector control (quantitative anti-HA Western blot) [1] [%] | Kd [4] [µM] | also measured
1 | FLAG-4xSUMO2-GFP-HA (from UniProt P61956 12-95; P61956 12-95; P61956 12-95) | 60 |  | 
2 | FLAG-SUMO2-GFP-COMP-HA |  |  | stoichiometry N [2]: 5
3 | SUMO1-GFP-COMP-HA |  |  | stoichiometry N [3]: 5
4 | linear SUMO1-capped SUMO2 trimer (SUMO1-ΔN15 followed by two SUMO2-ΔN11) (from UniProt P63165 16-101; P61956 12-95; P61956 12-95) |  | 12.4 | 

Second part, led by results:

Row | steady-state level of the reporter in S. cerevisiae co-expressing Arkadia, against the vector control (quantitative anti-HA Western blot) [1] [%] | Kd [4] [µM] | Substance | also measured
5 | 25 |  | FLAG-SUMO1-3xSUMO2-GFP-HA | 
6 |  | 11.1 | linear SUMO2 trimer (tri-SUMO2-ΔN11) (from UniProt P61956 12-95; P61956 12-95; P61956 12-95) | 
